# From paper PMC3280250, “Functional Redundancy of Two Pax-Like Proteins in Transcriptional Activation of Cyst Wall Protein Genes in Giardia lamblia”
# Positions count from the first letter of the chain named.
# T1: Pax2m3 (Giardia lamblia, UniProt A8B733 1-171, del172-302)
# T1 sequence: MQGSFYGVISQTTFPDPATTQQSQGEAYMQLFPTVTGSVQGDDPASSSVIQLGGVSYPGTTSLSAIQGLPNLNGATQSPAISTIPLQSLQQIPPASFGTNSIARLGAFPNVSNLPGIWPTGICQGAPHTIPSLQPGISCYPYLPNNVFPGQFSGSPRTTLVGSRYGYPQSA
# T2: Pax2 (Giardia lamblia, UniProt A8B733 1-302)
# T2 sequence: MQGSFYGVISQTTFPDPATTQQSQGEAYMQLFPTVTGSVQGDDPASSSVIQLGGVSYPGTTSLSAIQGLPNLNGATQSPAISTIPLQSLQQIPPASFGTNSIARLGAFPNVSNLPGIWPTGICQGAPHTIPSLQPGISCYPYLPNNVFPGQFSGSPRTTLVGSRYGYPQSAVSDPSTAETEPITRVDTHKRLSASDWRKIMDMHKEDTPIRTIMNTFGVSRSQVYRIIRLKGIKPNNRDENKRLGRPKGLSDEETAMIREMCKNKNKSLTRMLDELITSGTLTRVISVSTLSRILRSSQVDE
# B1: cwp1-45/-1 (dsDNA)
# DNA 1: GTTTACAACTCTCAGATCAAGAAACACAGAAATAAAATATCAGGG
# DNA 2: CCCTGATATTTTATTTCTGTGTTTCTTGATCTGAGAGTTGTAAAC
# B2: ran-51/-20 (dsDNA)
# DNA 1: TAAAATAAATTAAATCGAAATTAAAACTTTAA
# DNA 2: TTAAAGTTTTAATTTCGATTTAATTTATTTTA
# B3: cwp3-30/+10 (dsDNA)
# DNA 1: GTCTTTCCCAAAAAATAAGTTACTACTGATATGTTTTCTC
# DNA 2: GAGAAAACATATCAGTAGTAACTTATTTTTTGGGAAAGAC
# B4: cwp2-30/+8 (dsDNA)
# DNA 1: CAGCAGCTCAACAGTGGCTGGGAAAATAAAATGATCGC
# DNA 2: GCGATCATTTTATTTTCCCAGCCACTGTTGAGCTGCTG
# B5: cwp1-45/-1 single strand 1 (ssDNA)
# DNA: B1 DNA 1
# B6: ran-30/-1 (dsDNA)
# DNA 1: TAAAACTTTAACCCAGGAACCGAGAGTAGC
# DNA 2: GCTACTCTCGGTTCCTGGGTTAAAGTTTTA
# B7: cwp1-90/-46 (dsDNA)
# DNA 1: CTGGCTAACAGTCTACAGTCTACAATTTACAGTATACAATCTACA
# DNA 2: TGTAGATTGTATACTGTAAATTGTAGACTGTAGACTGTTAGCCAG
# B8: cwp1-90/-69 (dsDNA)
# DNA 1: CTGGCTAACAGTCTACAGTCTA
# DNA 2: TAGACTGTAGACTGTTAGCCAG
# B9: ran-81/-52 (dsDNA)
# DNA 1: CAGAAAAAGTTGTCAAGGAGGTGATAGCCG
# DNA 2: CGGCTATCACCTCCTTGACAACTTTTTCTG
# B10: cwp2-60/-31 (dsDNA)
# DNA 1: TAGACTGATGCTGTAGAGGTCAACAGATAA
# DNA 2: TTATCTGTTGACCTCTACAGCATCAGTCTA
# B11: myb2-60/-31 (dsDNA)
# DNA 1: TGGCTATGTATTTTTTCTTCTTCTACAGCT
# DNA 2: AGCTGTAGAAGAAGAAAAAATACATAGCCA
# B12: poly(A) (dsDNA)
# DNA 1: AAAAAAAAAAAAAAAAAAAAAAA
# DNA 2: TTTTTTTTTTTTTTTTTTTTTTT
# B13: poly(A) with T insertion (dsDNA)
# DNA 1: AAAAAAAAAAATAAAAAAAAAAA
# DNA 2: TTTTTTTTTTTATTTTTTTTTTT
# B14: poly(A) with TT insertion (dsDNA)
# DNA 1: AAAAAAAAAAATTAAAAAAAAAA
# DNA 2: TTTTTTTTTTAATTTTTTTTTTT
# B15: poly(A) with TTT insertion (dsDNA)
# DNA 1: AAAAAAAAAATTTAAAAAAAAAA
# DNA 2: TTTTTTTTTTAAATTTTTTTTTT
# B16: poly(A) with TC insertion (dsDNA)
# DNA 1: AAAAAAAAAAATCAAAAAAAAAA
# DNA 2: TTTTTTTTTTGATTTTTTTTTTT
# B17: cwp1-45/-1m9 (dsDNA)
# DNA 1: B1 DNA 1 with T40C, C41G, A42G
# DNA 2: B1 DNA 2 with T4C, G5C, A6G
# B18: cwp1-45/-1m11 (dsDNA)
# DNA 1: B1 DNA 1 with T33A, T38A, T40A
# DNA 2: B1 DNA 2 with A6T, A8T, A13T
# B19: cwp1-45/-1m4 (dsDNA)
# DNA 1: GTTTACAACTCTCAGATCGGCGGGCACAGAAATAAAATATCAGGG
# DNA 2: CCCTGATATTTTATTTCTGTGCCCGCCGATCTGAGAGTTGTAAAC
# B20: cwp1-45/-1m5 (dsDNA)
# DNA 1: B1 DNA 1 with C25G, A26G, C27G
# DNA 2: B1 DNA 2 with G19C, T20C, G21C
# Molecular target: T1, Pax2m3
# Test: EMSA; EMSA: 0.02 pmol 5'-32P probe, 5 ng protein, 20 ul, 0.5 ug poly(dI-dC), 15 min at room temperature, 6% acrylamide gel; buffer, salt and pH only by reference [31]
# Conditions: protein: recombinant; tags: C-terminal V5-His (pET101/D-TOPO); label: 5'-32P
row,Binder,binding result
1,B1,no binding
2,B2,no binding
3,B3,no binding
4,B4,no binding

# Molecular target: T2, Pax2
# Test: as above
# Conditions: protein: recombinant; tags: C-terminal V5-His (pET101/D-TOPO)
row,Binder,binding result
1,B5,no binding
2,B6,no binding

# Same assay, conditions: protein: recombinant; tags: C-terminal V5-His (pET101/D-TOPO); label: 5'-32P
row,Binder,binding result
1,B7,binds
2,B8,no binding
3,B2,binds
4,B9,no binding
5,B10,no binding
6,B11,no binding
7,B12,binds
8,B13,binds
9,B14,binds
10,B15,binds
11,B16,binds

# Molecular target: T2, Pax2
# Test: EMSA; unchanged; EMSA: 0.02 pmol 5'-32P probe, 5 ng protein, 20 ul, 0.5 ug poly(dI-dC), 15 min at room temperature, 6% acrylamide gel; buffer, salt and pH only by reference [31]
# Conditions: protein: recombinant; tags: C-terminal V5-His (pET101/D-TOPO); label: 5'-32P
row,Binder,binding result
1,B17,binds
2,B18,binds
3,B19,binds
4,B20,binds

# Molecular target: T2, Pax2
# Test: EMSA; strong binding; EMSA: 0.02 pmol 5'-32P probe, 5 ng protein, 20 ul, 0.5 ug poly(dI-dC), 15 min at room temperature, 6% acrylamide gel; buffer, salt and pH only by reference [31]
# Conditions: protein: recombinant; tags: C-terminal V5-His (pET101/D-TOPO); label: 5'-32P
row,Binder,binding result
1,B3,binds

# Molecular target: T2, Pax2
# Test: EMSA; self-competition and anti-V5 supershift assay confirm specificity; EMSA: 0.02 pmol 5'-32P probe, 5 ng protein, 20 ul, 0.5 ug poly(dI-dC), 15 min at room temperature, 6% acrylamide gel; buffer, salt and pH only by reference [31]
# Conditions: protein: recombinant; tags: C-terminal V5-His (pET101/D-TOPO); label: 5'-32P
row,Binder,binding result
1,B1,binds
